# According to PMC9482650, “Quantitative fragmentomics allow affinity mapping of interactomes” (Nature Communications, 2022):
# T1: APBA1_1, Q02410
# T1 sequence (Q02410 651-752, limits assumed, looked up): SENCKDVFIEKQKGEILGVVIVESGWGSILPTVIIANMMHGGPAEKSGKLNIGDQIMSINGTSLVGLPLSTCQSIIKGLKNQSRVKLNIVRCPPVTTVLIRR
# T2: APBA1_2, Q02410
# T2 sequence (Q02410 742-832, limits assumed, looked up): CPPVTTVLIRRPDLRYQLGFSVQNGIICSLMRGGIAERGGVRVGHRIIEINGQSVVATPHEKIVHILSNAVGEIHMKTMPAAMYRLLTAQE
# T3: ARHGAP21, Q5T5U3
# T3 sequence (Q5T5U3 45-169, limits assumed, looked up): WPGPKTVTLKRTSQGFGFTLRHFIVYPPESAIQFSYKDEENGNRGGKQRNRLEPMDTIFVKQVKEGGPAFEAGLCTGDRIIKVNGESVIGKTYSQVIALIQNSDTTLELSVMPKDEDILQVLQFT
# T4: DLG3_3, Q92796
# T4 sequence (Q92796 374-475, limits assumed, looked up): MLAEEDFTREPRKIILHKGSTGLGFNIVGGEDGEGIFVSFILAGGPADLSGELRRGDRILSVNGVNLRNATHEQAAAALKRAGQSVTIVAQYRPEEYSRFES
# T5: GRIP1_7, Q9Y3R0
# T5 sequence (Q9Y3R0 999-1096, limits assumed, looked up): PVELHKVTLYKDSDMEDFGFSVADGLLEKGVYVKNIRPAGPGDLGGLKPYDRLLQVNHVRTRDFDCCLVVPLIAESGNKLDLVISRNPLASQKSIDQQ
# T6: HTRA4, P83105
# T6 sequence (P83105 378-476, limits assumed, looked up): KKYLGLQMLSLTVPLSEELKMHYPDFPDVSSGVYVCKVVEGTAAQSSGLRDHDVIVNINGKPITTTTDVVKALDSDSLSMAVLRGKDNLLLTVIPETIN
# T7: LIN7A, O14910
# T7 sequence (O14910 103-200, limits assumed, looked up): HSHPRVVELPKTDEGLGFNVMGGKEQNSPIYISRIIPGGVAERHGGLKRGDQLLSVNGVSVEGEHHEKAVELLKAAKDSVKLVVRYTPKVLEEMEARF
# T8: LNX2_2, Q8N448
# T8 sequence (Q8N448 334-432, limits assumed, looked up): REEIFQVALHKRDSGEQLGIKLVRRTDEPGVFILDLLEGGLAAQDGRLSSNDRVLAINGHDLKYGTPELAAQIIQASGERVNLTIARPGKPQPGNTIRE
# T9: MPP6, Q9NZW5
# T9 sequence (Q9NZW5 125-219, limits assumed, looked up): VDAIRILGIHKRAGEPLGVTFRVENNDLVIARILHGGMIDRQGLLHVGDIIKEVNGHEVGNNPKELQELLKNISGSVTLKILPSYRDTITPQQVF
# T10: RAPGEF6, Q8TEU7
# T10 sequence (Q8TEU7 525-625, limits assumed, looked up): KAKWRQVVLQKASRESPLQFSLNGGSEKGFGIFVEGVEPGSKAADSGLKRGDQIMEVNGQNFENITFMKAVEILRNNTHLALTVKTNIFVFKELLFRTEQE
# T11: SNTB1, Q13884
# T11 sequence (Q13884 107-205, limits assumed, looked up): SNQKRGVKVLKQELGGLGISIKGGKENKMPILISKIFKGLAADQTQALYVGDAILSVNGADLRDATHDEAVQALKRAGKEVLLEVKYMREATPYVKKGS
# T12: TJP3_3, O95049
# T12 sequence (O95049 375-456, limits assumed, looked up): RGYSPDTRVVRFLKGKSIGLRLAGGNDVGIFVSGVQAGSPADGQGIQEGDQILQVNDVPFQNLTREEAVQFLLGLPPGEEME
# Target: T1, APBA1_1, Q02410
# Test: holdup assay
# Design: key: below the threshold = too weak to quantify, mostly under pKd 3.1 to 4
# Settings: plain residues with an end cap or a label only (N-terminal biotin on a linker: ado-ado)
row,Binder,pKd
1,"PEEGKKQSQC [GAGE12J, A6NER3]",below the threshold
2,"NPETRDETQL [KCNT1, Q5JUK3]",below the threshold

# Target: T2, APBA1_2, Q02410
# Test: holdup assay
# Design: key: below the threshold = too weak to quantify, mostly under pKd 3.1 to 4
# Settings: plain residues with an end cap or a label only (N-terminal biotin on a linker: ado-ado)
row,Binder,pKd
1,"PEEGKKQSQC [GAGE12J, A6NER3]",below the threshold
2,"NPETRDETQL [KCNT1, Q5JUK3]",below the threshold

# Target: T3, ARHGAP21, Q5T5U3
# Test: holdup assay
# Design: key: below the threshold = too weak to quantify, mostly under pKd 3.1 to 4
# Settings: plain residues with an end cap or a label only (N-terminal biotin on a linker: ado-ado)
row,Binder,pKd
1,"PEEGKKQSQC [GAGE12J, A6NER3]",below the threshold
2,"NPETRDETQL [KCNT1, Q5JUK3]",4.02

# Target: T4, DLG3_3, Q92796
# Test: holdup assay
# Design: key: below the threshold = too weak to quantify, mostly under pKd 3.1 to 4
# Settings: plain residues with an end cap or a label only (N-terminal biotin on a linker: ado-ado)
row,Binder,pKd
1,"PEEGKKQSQC [GAGE12J, A6NER3]",below the threshold
2,"NPETRDETQL [KCNT1, Q5JUK3]",below the threshold

# Target: DLG4_1, P78352
# Sequence (P78352 62-152): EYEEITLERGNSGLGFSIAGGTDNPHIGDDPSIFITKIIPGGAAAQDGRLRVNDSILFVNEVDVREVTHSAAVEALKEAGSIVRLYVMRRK
# Test: holdup assay
# Design: key: below the threshold = too weak to quantify, mostly under pKd 3.1 to 4
# Settings: plain residues with an end cap or a label only (N-terminal biotin on a linker: ado-ado)
row,Binder,pKd
1,"PEEGKKQSQC [GAGE12J, A6NER3]",below the threshold
2,"NPETRDETQL [KCNT1, Q5JUK3]",3.52

# Target: GRASP, Q7Z6J2
# Sequence (Q7Z6J2 96-193): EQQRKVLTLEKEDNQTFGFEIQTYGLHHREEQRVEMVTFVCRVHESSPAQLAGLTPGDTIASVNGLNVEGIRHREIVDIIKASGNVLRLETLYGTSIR
# Test: holdup assay
# Design: key: below the threshold = too weak to quantify, mostly under pKd 3.1 to 4
# Settings: plain residues with an end cap or a label only (N-terminal biotin on a linker: ado-ado)
row,Binder,pKd
1,"PEEGKKQSQC [GAGE12J, A6NER3]",below the threshold
2,"NPETRDETQL [KCNT1, Q5JUK3]",below the threshold

# Target: GRID2IP_1, A4D2P6
# Sequence (A4D2P6 1-87): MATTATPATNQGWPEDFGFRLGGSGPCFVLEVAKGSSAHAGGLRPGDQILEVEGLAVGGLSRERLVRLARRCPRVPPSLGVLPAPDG
# Test: holdup assay
# Design: key: below the threshold = too weak to quantify, mostly under pKd 3.1 to 4
# Settings: plain residues with an end cap or a label only (N-terminal biotin on a linker: ado-ado)
row,Binder,pKd
1,"PEEGKKQSQC [GAGE12J, A6NER3]",below the threshold
2,"NPETRDETQL [KCNT1, Q5JUK3]",below the threshold

# Target: T5, GRIP1_7, Q9Y3R0
# Test: holdup assay
# Design: key: below the threshold = too weak to quantify, mostly under pKd 3.1 to 4
# Settings: plain residues with an end cap or a label only (N-terminal biotin on a linker: ado-ado)
row,Binder,pKd
1,"PEEGKKQSQC [GAGE12J, A6NER3]",below the threshold
2,"NPETRDETQL [KCNT1, Q5JUK3]",below the threshold

# Target: T6, HTRA4, P83105
# Test: holdup assay
# Design: key: below the threshold = too weak to quantify, mostly under pKd 3.1 to 4
# Settings: plain residues with an end cap or a label only (N-terminal biotin on a linker: ado-ado)
row,Binder,pKd
1,"PEEGKKQSQC [GAGE12J, A6NER3]",below the threshold
2,"NPETRDETQL [KCNT1, Q5JUK3]",below the threshold

# Target: Inadl_2, Q8NI35
# Sequence (Q8NI35 238-335): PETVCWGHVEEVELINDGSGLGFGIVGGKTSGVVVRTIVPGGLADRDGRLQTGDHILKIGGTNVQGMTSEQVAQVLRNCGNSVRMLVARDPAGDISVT
# Test: holdup assay
# Design: key: below the threshold = too weak to quantify, mostly under pKd 3.1 to 4
# Settings: plain residues with an end cap or a label only (N-terminal biotin on a linker: ado-ado)
row,Binder,pKd
1,"PEEGKKQSQC [GAGE12J, A6NER3]",below the threshold
2,"NPETRDETQL [KCNT1, Q5JUK3]",below the threshold

# Target: Inadl_9, Q8NI35
# Sequence (Q8NI35 1530-1615): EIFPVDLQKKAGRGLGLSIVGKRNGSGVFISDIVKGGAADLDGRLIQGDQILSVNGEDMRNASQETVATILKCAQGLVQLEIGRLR
# Test: holdup assay
# Design: key: below the threshold = too weak to quantify, mostly under pKd 3.1 to 4
# Settings: plain residues with an end cap or a label only (N-terminal biotin on a linker: ado-ado)
row,Binder,pKd
1,"PEEGKKQSQC [GAGE12J, A6NER3]",below the threshold
2,"NPETRDETQL [KCNT1, Q5JUK3]",below the threshold

# Target: T7, LIN7A, O14910
# Test: holdup assay
# Design: key: below the threshold = too weak to quantify, mostly under pKd 3.1 to 4
# Settings: plain residues with an end cap or a label only (N-terminal biotin on a linker: ado-ado)
row,Binder,pKd
1,"PEEGKKQSQC [GAGE12J, A6NER3]",below the threshold
2,"NPETRDETQL [KCNT1, Q5JUK3]",below the threshold

# Target: T8, LNX2_2, Q8N448
# Test: holdup assay
# Design: key: below the threshold = too weak to quantify, mostly under pKd 3.1 to 4
# Settings: plain residues with an end cap or a label only (N-terminal biotin on a linker: ado-ado)
row,Binder,pKd
1,"PEEGKKQSQC [GAGE12J, A6NER3]",below the threshold
2,"NPETRDETQL [KCNT1, Q5JUK3]",below the threshold

# Target: MAGI1_1, Q96QZ7
# Sequence (Q96QZ7 1-106): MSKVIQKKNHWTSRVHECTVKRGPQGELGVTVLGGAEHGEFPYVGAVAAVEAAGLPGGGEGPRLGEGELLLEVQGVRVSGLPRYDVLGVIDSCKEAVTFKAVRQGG
# Test: holdup assay
# Design: key: below the threshold = too weak to quantify, mostly under pKd 3.1 to 4
# Settings: plain residues with an end cap or a label only (N-terminal biotin on a linker: ado-ado)
row,Binder,pKd
1,"PEEGKKQSQC [GAGE12J, A6NER3]",below the threshold
2,"NPETRDETQL [KCNT1, Q5JUK3]",below the threshold

# Target: T9, MPP6, Q9NZW5
# Test: holdup assay
# Design: key: below the threshold = too weak to quantify, mostly under pKd 3.1 to 4
# Settings: plain residues with an end cap or a label only (N-terminal biotin on a linker: ado-ado)
row,Binder,pKd
1,"PEEGKKQSQC [GAGE12J, A6NER3]",below the threshold
2,"NPETRDETQL [KCNT1, Q5JUK3]",3.74

# Target: NHERF2_2, Q15599
# Sequence (Q15599 142-238): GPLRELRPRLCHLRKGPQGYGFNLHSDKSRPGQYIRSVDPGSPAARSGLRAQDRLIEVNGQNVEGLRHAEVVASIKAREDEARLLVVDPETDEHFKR
# Test: holdup assay
# Design: key: below the threshold = too weak to quantify, mostly under pKd 3.1 to 4
# Settings: plain residues with an end cap or a label only (N-terminal biotin on a linker: ado-ado)
row,Binder,pKd
1,"PEEGKKQSQC [GAGE12J, A6NER3]",3.48
2,"NPETRDETQL [KCNT1, Q5JUK3]",4.83

# Target: NHERF4_1, Q86UT5-2
# Sequence (Q86UT5 other isoform, or with tags, fused parts or gaps): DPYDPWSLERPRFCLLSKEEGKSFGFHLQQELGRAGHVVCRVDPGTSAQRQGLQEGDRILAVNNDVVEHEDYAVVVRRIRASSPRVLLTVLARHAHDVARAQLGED
# Test: holdup assay
# Design: key: below the threshold = too weak to quantify, mostly under pKd 3.1 to 4
# Settings: plain residues with an end cap or a label only (N-terminal biotin on a linker: ado-ado)
row,Binder,pKd
1,"PEEGKKQSQC [GAGE12J, A6NER3]",3.79
2,"NPETRDETQL [KCNT1, Q5JUK3]",3.9

# Target: NHERF4_4, Q86UT5
# Sequence (Q86UT5 464-550): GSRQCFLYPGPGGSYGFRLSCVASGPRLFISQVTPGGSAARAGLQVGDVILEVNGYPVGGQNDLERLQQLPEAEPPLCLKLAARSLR
# Test: holdup assay
# Design: key: below the threshold = too weak to quantify, mostly under pKd 3.1 to 4
# Settings: plain residues with an end cap or a label only (N-terminal biotin on a linker: ado-ado)
row,Binder,pKd
1,"PEEGKKQSQC [GAGE12J, A6NER3]",below the threshold
2,"NPETRDETQL [KCNT1, Q5JUK3]",3.99

# Target: NOS1, P29475
# Sequence (P29475 9-101): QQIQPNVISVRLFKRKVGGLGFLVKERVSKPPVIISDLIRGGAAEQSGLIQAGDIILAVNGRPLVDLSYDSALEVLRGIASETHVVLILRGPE
# Test: holdup assay
# Design: key: below the threshold = too weak to quantify, mostly under pKd 3.1 to 4
# Settings: plain residues with an end cap or a label only (N-terminal biotin on a linker: ado-ado)
row,Binder,pKd
1,"PEEGKKQSQC [GAGE12J, A6NER3]",below the threshold
2,"NPETRDETQL [KCNT1, Q5JUK3]",3.52

# Target: PICK1, Q9NRD5
# Sequence (Q9NRD5 17-115): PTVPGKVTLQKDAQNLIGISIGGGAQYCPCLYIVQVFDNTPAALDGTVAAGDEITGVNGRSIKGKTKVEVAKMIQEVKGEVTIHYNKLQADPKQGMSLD
# Test: holdup assay
# Design: key: below the threshold = too weak to quantify, mostly under pKd 3.1 to 4
# Settings: plain residues with an end cap or a label only (N-terminal biotin on a linker: ado-ado)
row,Binder,pKd
1,"PEEGKKQSQC [GAGE12J, A6NER3]",below the threshold
2,"NPETRDETQL [KCNT1, Q5JUK3]",below the threshold

# Target: T10, RAPGEF6, Q8TEU7
# Test: holdup assay
# Design: key: below the threshold = too weak to quantify, mostly under pKd 3.1 to 4
# Settings: plain residues with an end cap or a label only (N-terminal biotin on a linker: ado-ado)
row,Binder,pKd
1,"PEEGKKQSQC [GAGE12J, A6NER3]",below the threshold
2,"NPETRDETQL [KCNT1, Q5JUK3]",below the threshold

# Target: T11, SNTB1, Q13884
# Test: holdup assay
# Design: key: below the threshold = too weak to quantify, mostly under pKd 3.1 to 4
# Settings: plain residues with an end cap or a label only (N-terminal biotin on a linker: ado-ado)
row,Binder,pKd
1,"PEEGKKQSQC [GAGE12J, A6NER3]",below the threshold
2,"NPETRDETQL [KCNT1, Q5JUK3]",4.35

# Target: TJP1_3, Q07157
# Sequence (Q07157 416-512): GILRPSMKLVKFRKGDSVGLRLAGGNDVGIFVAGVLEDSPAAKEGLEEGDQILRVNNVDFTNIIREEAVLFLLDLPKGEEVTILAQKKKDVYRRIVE
# Test: holdup assay
# Design: key: below the threshold = too weak to quantify, mostly under pKd 3.1 to 4
# Settings: plain residues with an end cap or a label only (N-terminal biotin on a linker: ado-ado)
row,Binder,pKd
1,"PEEGKKQSQC [GAGE12J, A6NER3]",below the threshold
2,"NPETRDETQL [KCNT1, Q5JUK3]",below the threshold

# Target: TJP2_1, Q9UDY2
# Sequence (Q9UDY2 24-128): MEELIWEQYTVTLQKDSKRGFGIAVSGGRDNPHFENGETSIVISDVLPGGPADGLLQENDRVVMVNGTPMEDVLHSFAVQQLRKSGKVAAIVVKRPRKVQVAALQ
# Test: holdup assay
# Design: key: below the threshold = too weak to quantify, mostly under pKd 3.1 to 4
# Settings: plain residues with an end cap or a label only (N-terminal biotin on a linker: ado-ado)
row,Binder,pKd
1,"PEEGKKQSQC [GAGE12J, A6NER3]",below the threshold
2,"NPETRDETQL [KCNT1, Q5JUK3]",below the threshold

# Target: T12, TJP3_3, O95049
# Test: holdup assay
# Design: key: below the threshold = too weak to quantify, mostly under pKd 3.1 to 4
# Settings: plain residues with an end cap or a label only (N-terminal biotin on a linker: ado-ado)
row,Binder,pKd
1,"PEEGKKQSQC [GAGE12J, A6NER3]",below the threshold
2,"NPETRDETQL [KCNT1, Q5JUK3]",below the threshold
